Test results: publication doi:10.1101/2023.11.02.565302

Target: ligand-binding domain (LBD) of rat GluK1 (rat)
Assay: crystal structure

A stoichiometry N of 2 was found for “ligand-binding domain (LBD) of rat GluK1 (domain or fragment)” in this work.
